The values that follow come from patent publication CN114031685A (INST MILITARY MEDICINE ACADEMY MILITARY SCIENCES PLA, dated 2022).

Test [1] has as its target 新冠病毒野生型 S蛋白 (on pseudovirus / live virus) (SARS-CoV-2, UniProt P0DTC2 14-1273). Briefly: cell-based or functional assay.
The target of test [2] is T1, SARS-CoV-2 NTD蛋白 (SARS-CoV-2, UniProt P0DTC2 14-303).
T1 construct: domain: NTD
Briefly: ELISA, antigen coated at 2 μg/mL. In general terms: In an ELISA, binding on a coated surface is turned into a signal by an enzyme label.

The target of test [3] is T2, SARS-CoV-2 WT S2蛋白 (SARS-CoV-2, UniProt P0DTC2 686-1213).
T2 construct: domain: S2
Briefly: ELISA, antigen coated at 2 μg/mL.

B1: 抗SARS-CoV-2全人源单克隆抗体ZW2G10 (antibody, V domains shown)
VH: EVQLVESGGGLVQPGRSLRLSCAASGFTFDDYAMHWVRQAPGKGLEWVSGITWNSGTIGYADSVKGRFIISRDNAKNSLHLQMNSLRVEDTALYYCAKDNSDYSGYYWELENYGMDVWGQGTTVTVSS
VL: QSVLTQPPSVSGAPGQRVTISCTGSSSNIGAGYDVHWYQQLPGTAPKLLIYDNNNRPSGVPDRFSGSKSGTSASLAITGLQAEDEADYYCQSFDSSLSGVVFGGGTRLTVLR
notes: also called 单抗ZW2G10
As to B1, the “假病毒中和 EC50” value in test [1] was determined as 14.2 ng/mL. In test [1], the “真病毒中和 EC50 (Vero E6)” value stood at 1.08 µg/mL. Moreover, the binding result in test [2] and in test [3] was “no binding” each time.
